Experimental data: article PMC10872465 (Molecular cell, 2023)

T1: MBP-HDAC8 (UniProt Q9BY41 8-374)
T1 sequence (looked up): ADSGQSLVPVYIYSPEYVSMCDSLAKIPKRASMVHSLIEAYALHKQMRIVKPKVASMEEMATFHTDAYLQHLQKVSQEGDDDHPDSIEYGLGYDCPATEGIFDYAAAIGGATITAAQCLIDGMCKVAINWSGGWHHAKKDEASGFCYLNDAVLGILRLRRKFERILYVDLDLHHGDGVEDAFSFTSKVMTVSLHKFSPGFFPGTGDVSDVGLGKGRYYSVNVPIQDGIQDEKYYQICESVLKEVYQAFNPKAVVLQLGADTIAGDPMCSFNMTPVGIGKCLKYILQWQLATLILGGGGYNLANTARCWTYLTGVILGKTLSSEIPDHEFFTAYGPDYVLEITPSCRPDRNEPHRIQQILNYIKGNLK

B1: hRpn13 (1–150) (domain or fragment, human, UniProt Q16186 1-150, looked up)
chain: MTTSGALFPSLVPGSRGASNKYLVEFRAGKMSLKGTTVTPDKRKGLVYIQQTDDSLIHFCWKDRTSGNVEDDLIIFPDDCEFKRVPQCPSGRVYVLKFKAGSKRLFFWMQEPKTDQDEEHCRKVNEYLNNPPMPGALGASGSSGHELSAL

Columns and labels:
Experiment in all cases: NMR titration
PADI4 (1–663) = PADI4 (1–663) (UniProt Q9UM07 1-663)
MBP-HDAC8 = molecular target: T1, MBP-HDAC8
hRpn13 (1–150) = molecular target: B1

Sequence of PADI4 (1–663) (Q9UM07 whole entry): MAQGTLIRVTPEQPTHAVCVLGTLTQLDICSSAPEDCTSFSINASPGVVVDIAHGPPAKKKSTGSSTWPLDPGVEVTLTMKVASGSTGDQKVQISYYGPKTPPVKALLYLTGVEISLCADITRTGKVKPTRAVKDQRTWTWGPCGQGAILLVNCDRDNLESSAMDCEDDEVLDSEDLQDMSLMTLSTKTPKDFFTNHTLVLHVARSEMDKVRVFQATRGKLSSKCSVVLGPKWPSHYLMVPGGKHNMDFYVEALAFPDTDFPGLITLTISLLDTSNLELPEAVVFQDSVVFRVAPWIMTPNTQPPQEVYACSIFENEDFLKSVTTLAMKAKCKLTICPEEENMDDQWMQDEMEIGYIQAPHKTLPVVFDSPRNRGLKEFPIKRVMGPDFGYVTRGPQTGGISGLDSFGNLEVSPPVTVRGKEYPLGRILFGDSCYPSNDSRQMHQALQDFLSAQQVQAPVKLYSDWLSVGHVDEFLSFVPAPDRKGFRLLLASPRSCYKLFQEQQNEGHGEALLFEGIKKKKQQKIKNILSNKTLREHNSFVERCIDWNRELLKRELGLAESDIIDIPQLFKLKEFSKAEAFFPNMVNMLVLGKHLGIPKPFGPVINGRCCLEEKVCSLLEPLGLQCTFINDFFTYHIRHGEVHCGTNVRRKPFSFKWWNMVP

binding result (PADI4 (1–663))	binding result (MBP-HDAC8)	binding result (hRpn13 (1–150))	Binder
binds	binds		B1
		binds	QEPEPPEPFEYIDD (peptide, UniProt Q99460 940-953, looked up) [hRpn2 (940–953)]
